Where two headings read alike, the source gives them in different places.

In test [1] the target is T1, folate receptor 1 (FOLR1) (human, UniProt P15328 25-234). The experiment in a line: flow cytometry binding on T47D cells.
For test [2], the target named is T1, folate receptor 1 (FOLR1). The experiment in a line: flow cytometry binding on T47D cells. The source holds these as a separate data set.

T1 sequence (P15328 25-234): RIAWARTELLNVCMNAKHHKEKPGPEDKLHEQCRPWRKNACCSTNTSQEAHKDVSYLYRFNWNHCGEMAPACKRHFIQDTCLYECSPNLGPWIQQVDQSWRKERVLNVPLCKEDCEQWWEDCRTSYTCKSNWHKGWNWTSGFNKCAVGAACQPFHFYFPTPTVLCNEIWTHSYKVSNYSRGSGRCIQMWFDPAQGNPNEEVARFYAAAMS

B1: huMOV19 antibody (antibody, V domains shown)
VH: QVQLVQSGAEVVKPGASVKISCKASGYTFTGYFMNWVKQSPGQSLEWIGRIHPYDGDTFYNQKFQGKATLTVDKSSNTAHMELLSLTSEDFAVYYCTRYDGSRAMDYWGQGTTVTVSS
VL: DIVLTQSPLSLAVSLGQPAIISCKASQSVSFAGTSLMHWYHQKPGQQPRLLIYRASNLEAGVPDRFSGSGSKTDFTLTISPVEAEDAATYYCQQSREYPYTFGGGTKLEIKR
With B1, the EC50 in test [1] stood at 314 pM; in test [2], 144 pM.

(Values after US20190269786A1 (published 2019).)
